T1: ΔN-chordin (UniProt Q9H2X0 127-955)
T1 construct: chordin, N-terminally truncated form called ΔN-chordin
T1 sequence (looked up): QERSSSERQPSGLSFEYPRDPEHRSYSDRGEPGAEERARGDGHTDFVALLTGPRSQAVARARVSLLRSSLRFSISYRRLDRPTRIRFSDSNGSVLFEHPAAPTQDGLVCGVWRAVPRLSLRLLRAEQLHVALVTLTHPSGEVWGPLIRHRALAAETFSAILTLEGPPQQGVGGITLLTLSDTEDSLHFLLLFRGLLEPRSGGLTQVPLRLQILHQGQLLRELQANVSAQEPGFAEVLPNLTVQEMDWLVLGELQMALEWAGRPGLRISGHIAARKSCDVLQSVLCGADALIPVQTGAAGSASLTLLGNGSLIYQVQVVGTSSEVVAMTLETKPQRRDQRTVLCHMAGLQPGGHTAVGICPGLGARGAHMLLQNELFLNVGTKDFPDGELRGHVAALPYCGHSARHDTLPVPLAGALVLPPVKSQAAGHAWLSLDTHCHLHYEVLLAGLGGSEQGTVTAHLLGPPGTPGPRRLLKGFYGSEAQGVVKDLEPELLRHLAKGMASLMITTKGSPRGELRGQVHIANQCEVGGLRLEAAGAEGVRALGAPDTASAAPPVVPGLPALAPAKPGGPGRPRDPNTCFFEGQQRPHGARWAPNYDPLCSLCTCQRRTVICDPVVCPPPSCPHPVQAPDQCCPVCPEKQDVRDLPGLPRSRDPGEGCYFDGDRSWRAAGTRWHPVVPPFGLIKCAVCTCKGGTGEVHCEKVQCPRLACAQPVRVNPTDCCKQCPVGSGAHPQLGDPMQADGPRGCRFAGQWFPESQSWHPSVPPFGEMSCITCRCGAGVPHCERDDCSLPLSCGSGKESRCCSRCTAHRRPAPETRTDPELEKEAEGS


Target: the molecule itself
Assay: negative-stain electron microscopy, single-particle analysis; TLL-2 ~10 ug/ml in 10 mM HEPES, 500 mM NaCl, 2 mM CaCl2, pH 7.4 on carbon-coated grids, 4% uranyl acetate
Details: not given

| Binder | stoichiometry N |
| --- | --- |
| human mammalian tolloid like-2 (TLL-2) (enzyme, UniProt Q9Y6L7 26-1015, looked up, N-linked glycans (5 predicted from primary sequence; shift with PNGaseF), purified as a secreted protein; predicted mass of a monomer printed as 98.58 kDa; also called mTLL2; mTLL-2) ATTSRTERIWPGGVIPYVIGGNFTGSQRAIFKQAMRHWEKHTCVTFIERTDEESFIVFSYRTCGCCSYVGRRGGGPQAISIGKNCDKFGIVAHELGHVVGFWHEHTRPDRDQHVTIIRENIQPGQEYNFLKMEAGEVSSLGETYDFDSIMHYARNTFSRGVFLDTILPRQDDNGVRPTIGQRVRLSQGDIAQARKLYKCPACGETLQDTTGNFSAPGFPNGYPSYSHCVWRISVTPGEKIVLNFTSMDLFKSRLCWYDYVEVRDGYWRKAPLLGRFCGDKIPEPLVSTDSRLWVEFRSSSNILGKGFFAAYEATCGGDMNKDAGQIQSPNYPDDYRPSKECVWRITVSEGFHVGLTFQAFEIERHDSCAYDYLEVRDGPTEESALIGHFCGYEKPEDVKSSSNRLWMKFVSDGSINKAGFAANFFKEVDECSWPDHGGCEHRCVNTLGSYKCACDPGYELAADKKMCEVACGGFITKLNGTITSPGWPKEYPTNKNCVWQVVAPAQYRISLQFEVFELEGNDVCKYDFVEVRSGLSPDAKLHGRFCGSETPEVITSQSNNMRVEFKSDNTVSKRGFRAHFFSDKDECAKDNGGCQHECVNTFGSYLCRCRNGYWLHENGHDCKEAGCAHKISSVEGTLASPNWPDKYPSRRECTWNISSTAGHRVKLTFNEFEIEQHQECAYDHLEMYDGPDSLAPILGRFCGSKKPDPTVASGSSMFLRFYSDASVQRKGFQAVHSTECGGRLKAEVQTKELYSHAQFGDNNYPSEARCDWVIVAEDGYGVELTFRTFEVEEEADCGYDYMEAYDGYDSSAPRLGRFCGSGPLEEIYSAGDSLMIRFRTDDTINKKGFHARYTSTKFQDALHMKK | 2 |

Target: T1, ΔN-chordin
Assay: SPR; tolloid fragments immobilised on a GLC chip by amine coupling, ΔN-chordin injected as analyte at increasing concentrations; ProteOn XPR36; 10 mM HEPES, 150 mM NaCl, 2 mM CaCl2, 0.05% Tween 20, pH 7.4, 25 °C; 1:1 Langmuir model; triplicate
Details: both partners purified

| Binder | Kd |
| --- | --- |
| TLL2 CUB4-CUB5 (domain or fragment, human, UniProt Q9Y6L7 776-1005, looked up, mammalian tolloid like-2 (TLL-2), human; domains CUB4 and CUB5; Cloned at OPPF-UK in pOPINTTGneo; also called TLL2-C4C5; C4C5 from TLL-2) CAHKISSVEGTLASPNWPDKYPSRRECTWNISSTAGHRVKLTFNEFEIEQHQECAYDHLEMYDGPDSLAPILGRFCGSKKPDPTVASGSSMFLRFYSDASVQRKGFQAVHSTECGGRLKAEVQTKELYSHAQFGDNNYPSEARCDWVIVAEDGYGVELTFRTFEVEEEADCGYDYMEAYDGYDSSAPRLGRFCGSGPLEEIYSAGDSLMIRFRTDDTINKKGFHARYTST | 0.25 ± 0.02 nM |
| mTLD CUB1-CUB2-EGF1 (domain or fragment, UniProt P13497 322-588, looked up, mammalian tolloid (mTLD), product of the Bmp1 gene; domains CUB1, CUB2 and EGF1 (shared with BMP-1); Cloned at OPPF-UK in pOPINTTGneo; also called mTLD-C1C2E1; C1C2E1 from mTLD/BMP1) CGETLQDSTGNFSSPEYPNGYSAHMHCVWRISVTPGEKIILNFTSLDLYRSRLCWYDYVEVRDGFWRKAPLRGRFCGSKLPEPIVSTDSRLWVEFRSSSNWVGKGFFAVYEAICGGDVKKDYGHIQSPNYPDDYRPSKVCIWRIQVSEGFHVGLTFQSFEIERHDSCAYDYLEVRDGHSESSTLIGRYCGYEKPDDIKSTSSRLWLKFVSDGSINKAGFAVNFFKEVDECSRPNRGGCEQRCLNTLGSYKCSCDPGYELAPDKRRCE | 0.278 nM |
| TLL2 CUB1-CUB2-EGF1 (domain or fragment, human, UniProt Q9Y6L7 351-617, looked up, mammalian tolloid like-2 (TLL-2), human; domains CUB1, CUB2 and EGF1; Cloned at OPPF-UK in pOPINTTGneo; also called TLL2-C1C2E1; C1C2E1 from TLL-2) CGETLQDTTGNFSAPGFPNGYPSYSHCVWRISVTPGEKIVLNFTSMDLFKSRLCWYDYVEVRDGYWRKAPLLGRFCGDKIPEPLVSTDSRLWVEFRSSSNILGKGFFAAYEATCGGDMNKDAGQIQSPNYPDDYRPSKECVWRITVSEGFHVGLTFQAFEIERHDSCAYDYLEVRDGPTEESALIGHFCGYEKPEDVKSSSNRLWMKFVSDGSINKAGFAANFFKEVDECSWPDHGGCEHRCVNTLGSYKCACDPGYELAADKKMCE | 0.247 ± 0.26 nM |
| mTLD CUB4-CUB5 (domain or fragment, UniProt P13497 747-976, looked up, mammalian tolloid (mTLD), product of the Bmp1 gene; domains CUB4 and CUB5; Cloned at OPPF-UK in pOPINTTGneo; also called mTLD-C4C5; C4C5 from mTLD) CDHKVTSTSGTITSPNWPDKYPSKKECTWAISSTPGHRVKLTFMEMDIESQPECAYDHLEVFDGRDAKAPVLGRFCGSKKPEPVLATGSRMFLRFYSDNSVQRKGFQASHATECGGQVRADVKTKDLYSHAQFGDNNYPGGVDCEWVIVAEEGYGVELVFQTFEVEEETDCGYDYMELFDGYDSTAPRLGRYCGSGPPEEVYSAGDSVLVKFHSDDTITKKGFHLRYTST | 0.19 ± 0.02 nM |

Second part, the binder after the results:

| Kd | Binder |
| --- | --- |
| 0.057 ± 0.003 nM | TLL1 CUB1-CUB2-EGF1 (domain or fragment, UniProt O43897 349-615, looked up, mammalian tolloid like-1 (TLL-1); domains CUB1, CUB2 and EGF1; Cloned at OPPF-UK in pOPINTTGneo; also called TLL1-C1C2E1; C1C2E1 from TLL-1) CGETLQESNGNLSSPGFPNGYPSYTHCIWRVSVTPGEKIVLNFTTMDLYKSSLCWYDYIEVRDGYWRKSPLLGRFCGDKLPEVLTSTDSRMWIEFRSSSNWVGKGFAAVYEAICGGEIRKNEGQIQSPNYPDDYRPMKECVWKITVSESYHVGLTFQSFEIERHDNCAYDYLEVRDGTSENSPLIGRFCGYDKPEDIRSTSNTLWMKFVSDGTVNKAGFAANFFKEEDECAKPDRGGCEQRCLNTLGSYQCACEPGYELGPDRRSCE |
| 0.056 ± 0.01 nM | TLL1 CUB4-CUB5 (domain or fragment, UniProt O43897 774-1003, looked up, mammalian tolloid like-1 (TLL-1); domains CUB4 and CUB5; Cloned at OPPF-UK in pOPINTTGneo; also called TLL1-C4C5; C4C5 from TLL-1) CEQKIHSPSGLITSPNWPDKYPSRKECTWEISATPGHRIKLAFSEFEIEQHQECAYDHLEVFDGETEKSPILGRLCGNKIPDPLVATGNKMFVRFVSDASVQRKGFQATHSTECGGRLKAESKPRDLYSHAQFGDNNYPGQVDCEWLLVSERGSRLELSFQTFEVEEEADCGYDYVELFDGLDSTAVGLGRFCGSGPPEEIYSIGDSVLIHFHTDDTINKKGFHIRYKSI |
